Laboratory results taken from patent US20100266598A1.

Key:
human CCR5 (human) = human CCR5 (human) (UniProt P51681); assay: cell-based or functional assay
[1] = molecular target: Rhesus CCR5 (Rhesus Macaque); assay: cell-based or functional assay

With monoclonal antibody (mAb) 2D7 the % Inhibition, PM1 x 12E1/BaL, inhibitor at 20 µg/ml (human CCR5 (human)) was 99%, the CCR5-tropic virus neutralization (percent inhibition of p24) at 50 µg/ml (human CCR5 (human)) was 82 to 93% and the IC50 of PBMC infection by BaL, JR-CSF and 92US657 (human CCR5 (human)) was 2 to 4 µg/mL. The No. of Syncytia, PM1 x 12E1/BaL, inhibitor at 20 µg/ml (human CCR5 (human)) was 5 syncytia, the % Inhibition, Rhesus PBMC (#810) x 12E1/SIV239, inhibitor at 20 µg/ml [1] was 4% and the No. of Syncytia, Rhesus PBMC (#810) x 12E1/SIV239, inhibitor at 20 µg/ml [1] was 258 syncytia.

With pre-immune rabbit IgG (antibody) the % Inhibition, PM1 x 12E1/BaL, inhibitor at 25 µg/ml (human CCR5 (human)) was 0%, the No. of Syncytia, PM1 x 12E1/BaL, inhibitor at 25 µg/ml (human CCR5 (human)) was 487 syncytia and the % Inhibition, Rhesus PBMC (#810) x 12E1/SIV239, inhibitor at 25 µg/ml [1] was 0%. For the same substance, the No. of Syncytia, Rhesus PBMC (#810) x 12E1/SIV239, inhibitor at 25 µg/ml [1] was 285 syncytia.
